Where a chain is given by its changes, count along the chain named. Values belong to the binder of their own block, whether it stands above or below them.
How the values were obtained:
Test in all cases: SPR, captured antibody, FcgR analyte
[1] = biological target: T1, FcγRIa extracellular domain with C-terminal His tag (human, UniProt P12314 16-292)
T1 construct: also called FcgRIa
Experimental: (§1) Relative binding activities were calculated for the results of analyzing interactions with the respective FcγRs according to the following method.

[2] = biological target: T2, FcγRIIa type H extracellular domain with C-terminal His tag (human, UniProt P12318 34-217)
T2 construct: extracellular domain; also called FcgRIIaH; FcγRIIa H
T2 sequence (looked up): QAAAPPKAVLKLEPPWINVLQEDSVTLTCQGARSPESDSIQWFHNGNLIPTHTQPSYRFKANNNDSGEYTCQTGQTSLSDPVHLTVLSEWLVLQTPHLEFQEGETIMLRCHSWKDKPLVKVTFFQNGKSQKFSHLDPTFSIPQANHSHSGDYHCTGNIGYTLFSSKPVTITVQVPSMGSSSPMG
Experimental: as §1

[3] = biological target: T3, FcγRIIb extracellular domain with C-terminal His tag (human, UniProt P31994 43-217)
T3 construct: extracellular domain; also called FcgRIIb
T3 sequence (looked up): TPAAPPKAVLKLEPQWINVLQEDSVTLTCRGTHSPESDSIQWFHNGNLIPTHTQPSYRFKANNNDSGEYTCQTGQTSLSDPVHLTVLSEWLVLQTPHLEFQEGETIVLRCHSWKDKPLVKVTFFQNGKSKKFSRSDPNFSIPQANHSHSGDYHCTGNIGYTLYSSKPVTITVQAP
Experimental: as §1

T1 sequence (P12314 16-292): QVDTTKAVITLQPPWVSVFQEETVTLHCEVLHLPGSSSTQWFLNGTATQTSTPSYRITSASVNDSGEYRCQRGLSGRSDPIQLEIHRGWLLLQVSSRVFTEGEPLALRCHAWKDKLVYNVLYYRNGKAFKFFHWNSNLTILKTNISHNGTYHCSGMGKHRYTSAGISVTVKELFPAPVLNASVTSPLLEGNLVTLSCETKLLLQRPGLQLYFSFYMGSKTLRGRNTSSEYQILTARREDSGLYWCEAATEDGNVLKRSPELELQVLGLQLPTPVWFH

relative binding activity [1]: 109 relative (IL6R-BF648/IL6R-L = 100)
relative binding activity [2]: 162 relative (IL6R-BF648/IL6R-L = 100)
relative binding activity [3]: 141 relative (IL6R-BF648/IL6R-L = 100)
B1: IL6R-BP084/IL6R-L (antibody, human IgG1, kappa)
heavy: QVQLQESGPGLVKPSETLSLTCAVSGHSISHDHAWSWVRQPPGEGLEWIGFISYSGITNYNPSLQGRVTISRDNSKNTLYLQMNSLRAEDTAVYYCARSLARTTAMDYWGEGTLVTVSSASTKGPSVFPLAPSSKSTSGGTAALGCLVKDYFPEPVTVSWNSGALTSGVHTFPAVLQSSGLYSLSSVVTVPSSSLGTQTYICNVNHKPSNTKVDKKVEPKSCDKTHTCPPCPAPELLGGDSVFLFPPKPKDTLMISRTPEVTCVVVDVSHEDPEVKFNWYVDGVEVHNAKTKPREEQYNSTYRVVSVLTVLHQDWLNGKEYKCKMSNKALPKPIEKTISKAKGQPREPQVYTLPPSRDELTKNQVSLTCLVKGFYPSDIAVEWESNGQPENNYKTTPPVLDSDGSFFLYSKLTVDKSRWQQGNVFSCSVMHEALHNHYTQESLSLSP
light: not shown

relative binding activity [1]: 33 relative (IL6R-BF648/IL6R-L = 100)
relative binding activity [2]: 179 relative (IL6R-BF648/IL6R-L = 100)
relative binding activity [3]: 137 relative (IL6R-BF648/IL6R-L = 100)
B2: IL6R-BP087/IL6R-L (antibody, human IgG1, kappa)
heavy: B1 heavy with L236Y, M325V
light: not shown

relative binding activity [1]: 33 relative (IL6R-BF648/IL6R-L = 100)
relative binding activity [2]: 462 relative (IL6R-BF648/IL6R-L = 100)
relative binding activity [3]: 176 relative (IL6R-BF648/IL6R-L = 100)
B3: IL6R-BP148/IL6R-L (antibody, human IgG1, kappa)
heavy: B1 heavy with E235D, L236Y, G239D, M325V, K328A
light: not shown

relative binding activity [1]: 43 relative (IL6R-BF648/IL6R-L = 100)
relative binding activity [2]: 186 relative (IL6R-BF648/IL6R-L = 100)
relative binding activity [3]: 147 relative (IL6R-BF648/IL6R-L = 100)
B4: IL6R-BP089/IL6R-L (antibody, human IgG1, kappa)
heavy: B1 heavy with L236Y, M325V, K328A
light: not shown

relative binding activity [1]: 39 relative (IL6R-BF648/IL6R-L = 100)
relative binding activity [2]: 621 relative (IL6R-BF648/IL6R-L = 100)
B5: IL6R-BP151/IL6R-L (antibody, human IgG1, kappa)
heavy: B1 heavy with E235D, L236Y, G239D, M325V, K328A, K332R
light: not shown

relative binding activity [1]: 34 relative (IL6R-BF648/IL6R-L = 100)
relative binding activity [2]: 548 relative (IL6R-BF648/IL6R-L = 100)
relative binding activity [3]: 178 relative (IL6R-BF648/IL6R-L = 100)
B6: IL6R-BP152/IL6R-L (antibody, human IgG1, kappa)
heavy: B1 heavy with E235D, L236Y, G239D, Y298D, M325V, K328A, K332R
light: not shown

relative binding activity [1]: 25 relative (IL6R-BF648/IL6R-L = 100)
relative binding activity [2]: 166 relative (IL6R-BF648/IL6R-L = 100)
relative binding activity [3]: 161 relative (IL6R-BF648/IL6R-L = 100)
B7: IL6R-BP088/IL6R-L (antibody, human IgG1, kappa)
heavy: B1 heavy with G239D, M325V, K328A
light: not shown

relative binding activity [1]: 89 relative (IL6R-BF648/IL6R-L = 100)
relative binding activity [2]: 195 relative (IL6R-BF648/IL6R-L = 100)
relative binding activity [3]: 157 relative (IL6R-BF648/IL6R-L = 100)
B8: IL6R-BP196/IL6R-L (antibody, human IgG1, kappa)
heavy: B1 heavy with L236Y, H270D, P273G, M325V, K328A
light: not shown

relative binding activity [1]: 29 relative (IL6R-BF648/IL6R-L = 100)
relative binding activity [2]: 203 relative (IL6R-BF648/IL6R-L = 100)
relative binding activity [3]: 179 relative (IL6R-BF648/IL6R-L = 100)
B9: IL6R-BP180/IL6R-L (antibody, human IgG1, kappa)
heavy: B1 heavy with G239D, P273G, M325V
light: not shown

relative binding activity [1]: 60 relative (IL6R-BF648/IL6R-L = 100)
relative binding activity [2]: 517 relative (IL6R-BF648/IL6R-L = 100)
relative binding activity [3]: 188 relative (IL6R-BF648/IL6R-L = 100)
B10: IL6R-BP200/IL6R-L (antibody, human IgG1, kappa)
heavy: B1 heavy with E235D, L236Y, G239D, P273G, M325V, K328D, K332R
light: not shown

relative binding activity [1]: 68 relative (IL6R-BF648/IL6R-L = 100)
relative binding activity [2]: 344 relative (IL6R-BF648/IL6R-L = 100)
B11: IL6R-BP195/IL6R-L (antibody, human IgG1, kappa)
heavy: B1 heavy with E235D, L236Y, G239D, H270D, P273G, Y298D, M325V, K328A
light: not shown

relative binding activity [1]: 83 relative (IL6R-BF648/IL6R-L = 100)
relative binding activity [2]: 191 relative (IL6R-BF648/IL6R-L = 100)
relative binding activity [3]: 164 relative (IL6R-BF648/IL6R-L = 100)
B12: IL6R-BP183/IL6R-L (antibody, human IgG1, kappa)
heavy: B1 heavy with E235D, L236Y, P273G, M325V, K328A
light: not shown

relative binding activity [1]: 33 relative (IL6R-BF648/IL6R-L = 100)
relative binding activity [2]: 253 relative (IL6R-BF648/IL6R-L = 100)
B13: IL6R-BP131/IL6R-L (antibody, human IgG1, kappa)
heavy: B1 heavy with E235D, G239D, M325V
light: not shown

relative binding activity [1]: 56 relative (IL6R-BF648/IL6R-L = 100)
relative binding activity [2]: 183 relative (IL6R-BF648/IL6R-L = 100)
relative binding activity [3]: 177 relative (IL6R-BF648/IL6R-L = 100)
B14: IL6R-BP189/IL6R-L (antibody, human IgG1, kappa)
heavy: B1 heavy with G239D, H270D, P273G, M325V, K328A
light: not shown

relative binding activity [1]: 24 relative (IL6R-BF648/IL6R-L = 100)
relative binding activity [2]: 582 relative (IL6R-BF648/IL6R-L = 100)
relative binding activity [3]: 177 relative (IL6R-BF648/IL6R-L = 100)
B15: IL6R-BP147/IL6R-L (antibody, human IgG1, kappa)
heavy: B1 heavy with L236Y, G239D, M325V, K328A
light: not shown

relative binding activity [1]: 41 relative (IL6R-BF648/IL6R-L = 100)
relative binding activity [2]: 224 relative (IL6R-BF648/IL6R-L = 100)
relative binding activity [3]: 152 relative (IL6R-BF648/IL6R-L = 100)
B16: IL6R-BP145/IL6R-L (antibody, human IgG1, kappa)
heavy: B1 heavy with L236Y, G239D, M325V, K332A
light: not shown

relative binding activity [1]: 69 relative (IL6R-BF648/IL6R-L = 100)
relative binding activity [2]: 395 relative (IL6R-BF648/IL6R-L = 100)
relative binding activity [3]: 178 relative (IL6R-BF648/IL6R-L = 100)
B17: IL6R-BP194/IL6R-L (antibody, human IgG1, kappa)
heavy: B1 heavy with E235D, L236Y, G239D, H270D, P273G, M325V, K328A
light: not shown

relative binding activity [1]: 30 relative (IL6R-BF648/IL6R-L = 100)
relative binding activity [2]: 770 relative (IL6R-BF648/IL6R-L = 100)
relative binding activity [3]: 183 relative (IL6R-BF648/IL6R-L = 100)
B18: IL6R-BP150/IL6R-L (antibody, human IgG1, kappa)
heavy: B1 heavy with L236Y, G239D, M325V, K328A, K332R
light: not shown

relative binding activity [1]: 57 relative (IL6R-BF648/IL6R-L = 100)
relative binding activity [2]: 359 relative (IL6R-BF648/IL6R-L = 100)
relative binding activity [3]: 186 relative (IL6R-BF648/IL6R-L = 100)
B19: IL6R-BP201/IL6R-L (antibody, human IgG1, kappa)
heavy: B1 heavy with E235D, G239D, P273G, M325V, K332R
light: not shown

relative binding activity [2]: 259 relative (IL6R-BF648/IL6R-L = 100)
relative binding activity [3]: 179 relative (IL6R-BF648/IL6R-L = 100)
B20: IL6R-BP178/IL6R-L (antibody, human IgG1, kappa)
heavy: B1 heavy with E235D, G239D, P273G, M325V
light: not shown

relative binding activity [1]: 43 relative (IL6R-BF648/IL6R-L = 100)
relative binding activity [2]: 368 relative (IL6R-BF648/IL6R-L = 100)
relative binding activity [3]: 175 relative (IL6R-BF648/IL6R-L = 100)
B21: IL6R-BP186/IL6R-L (antibody, human IgG1, kappa)
heavy: B1 heavy with E235D, L236Y, G239D, P273G, Y298D, M325V, K328A
light: not shown

relative binding activity [1]: 39 relative (IL6R-BF648/IL6R-L = 100)
relative binding activity [2]: 226 relative (IL6R-BF648/IL6R-L = 100)
relative binding activity [3]: 177 relative (IL6R-BF648/IL6R-L = 100)
B22: IL6R-BP179/IL6R-L (antibody, human IgG1, kappa)
heavy: B1 heavy with G239D, P273G, M325V, K328A
light: not shown

relative binding activity [1]: 104 relative (IL6R-BF648/IL6R-L = 100)
relative binding activity [2]: 188 relative (IL6R-BF648/IL6R-L = 100)
relative binding activity [3]: 164 relative (IL6R-BF648/IL6R-L = 100)
B23: IL6R-BP198/IL6R-L (antibody, human IgG1, kappa)
heavy: B1 heavy with E235D, L236Y, H270D, P273G, M325V, K328A
light: not shown

relative binding activity [2]: 203 relative (IL6R-BF648/IL6R-L = 100)
relative binding activity [3]: 156 relative (IL6R-BF648/IL6R-L = 100)
B24: IL6R-BP146/IL6R-L (antibody, human IgG1, kappa)
heavy: B1 heavy with L236Y, G239D, M325V, K328A, K332A
light: not shown

relative binding activity [1]: 57 relative (IL6R-BF648/IL6R-L = 100)
relative binding activity [2]: 409 relative (IL6R-BF648/IL6R-L = 100)
relative binding activity [3]: 177 relative (IL6R-BF648/IL6R-L = 100)
B25: IL6R-BP177/IL6R-L (antibody, human IgG1, kappa)
heavy: B1 heavy with E235D, L236Y, G239D, P273G, M325V, K328D
light: not shown

relative binding activity [1]: 29 relative (IL6R-BF648/IL6R-L = 100)
relative binding activity [2]: 401 relative (IL6R-BF648/IL6R-L = 100)
relative binding activity [3]: 173 relative (IL6R-BF648/IL6R-L = 100)
B26: IL6R-BP149/IL6R-L (antibody, human IgG1, kappa)
heavy: B1 heavy with E235D, L236Y, G239D, Y298D, M325V, K328A
light: not shown

relative binding activity [1]: 68 relative (IL6R-BF648/IL6R-L = 100)
relative binding activity [2]: 205 relative (IL6R-BF648/IL6R-L = 100)
relative binding activity [3]: 157 relative (IL6R-BF648/IL6R-L = 100)
B27: IL6R-BP187/IL6R-L (antibody, human IgG1, kappa)
heavy: B1 heavy with L236Y, P273G, M325V, K328A
light: not shown

relative binding activity [1]: 50 relative (IL6R-BF648/IL6R-L = 100)
relative binding activity [2]: 224 relative (IL6R-BF648/IL6R-L = 100)
B28: IL6R-BP190/IL6R-L (antibody, human IgG1, kappa)
heavy: B1 heavy with G239D, H270D, P273G, M325V
light: not shown

relative binding activity [1]: 71 relative (IL6R-BF648/IL6R-L = 100)
relative binding activity [2]: 294 relative (IL6R-BF648/IL6R-L = 100)
relative binding activity [3]: 179 relative (IL6R-BF648/IL6R-L = 100)
B29: IL6R-BP197/IL6R-L (antibody, human IgG1, kappa)
heavy: B1 heavy with E235D, L236Y, G239D, H270D, P273G, Y298D, M325V, K328D
light: not shown

Source: patent US20210261648A1 (published 2021)
